Experimental data as given in US20160053025A1 (SAMSUNG ELECTRONICS, published 2016).

Experiments:
[1] = target: T1, hTie2-Fc (R&D Systems) (human, UniProt Q02763 23-745); test: Complex ELISA: plate coated with Tie2-Fc (4 ug/ml), 10D6 2 ug/ml without Ang2, anti-mouse IgG-HRP, OD450
T1 construct: Bought fusion protein; also called hTie-2/Fc fusion protein; not shown: Fc of human IgG1
Procedure: A 96-well MaxiSorp™ flat-bottom plate (Nunc) was coated with 4 μg/ml of Tie2-Fc (R&D systems) or BSA (Sigma). Then, the plate was washed five times with 0.05% (v/v) Tween-20-containing PBS (Phosphate Buffer Saline) and blocked with 1% (v/v) BSA (Bovine serum albumin; Sigma)-containing PBS at a room temperature for 2 hours. […] After that, an anti-mouse IgG antibody (Sigma) conjugated with HRP diluted in 1% (v/v) BSA-containing PBS at a ratio of 1:5,000 (v/v) was added in an amount of 100 ul to each well to react at a room temperature for 1 hour and then, the plate was washed five times with PBST. Lastly, 100 ul (microliter) of TMB substrate (Cell Signaling) was added to each well of the plate to induce color development for 3 min. and then, the reaction was ceased by the addition of 100 ul of Stop solution (Cell Signaling) and OD450 values were measured on a plate reader (Molecular Devices).

[2] = target: T2, Ang2 protein (R&D systems) (human, UniProt O15123 19-496); test: cell-based or functional assay
T2 sequence: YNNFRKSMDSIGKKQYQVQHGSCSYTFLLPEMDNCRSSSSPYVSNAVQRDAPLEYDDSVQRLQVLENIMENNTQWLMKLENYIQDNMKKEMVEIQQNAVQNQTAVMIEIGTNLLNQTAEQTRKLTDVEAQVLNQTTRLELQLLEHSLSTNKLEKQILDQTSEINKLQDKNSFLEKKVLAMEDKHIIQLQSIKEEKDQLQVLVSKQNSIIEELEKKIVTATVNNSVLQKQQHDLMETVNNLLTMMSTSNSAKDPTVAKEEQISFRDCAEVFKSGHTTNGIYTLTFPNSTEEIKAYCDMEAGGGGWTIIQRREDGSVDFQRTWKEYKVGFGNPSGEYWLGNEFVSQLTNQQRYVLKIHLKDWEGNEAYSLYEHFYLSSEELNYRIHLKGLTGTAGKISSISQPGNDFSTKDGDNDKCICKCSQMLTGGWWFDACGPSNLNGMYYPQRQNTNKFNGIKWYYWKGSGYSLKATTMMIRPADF

[3] = target: T3, Ang2 RBD Y460A, FLAG-tagged (human, UniProt O15123 281-496, limits assumed); test: ELISA, antibody coated, FLAG-tagged mutant Ang2 RBD detected with anti-FLAG-HRP
T3 chain: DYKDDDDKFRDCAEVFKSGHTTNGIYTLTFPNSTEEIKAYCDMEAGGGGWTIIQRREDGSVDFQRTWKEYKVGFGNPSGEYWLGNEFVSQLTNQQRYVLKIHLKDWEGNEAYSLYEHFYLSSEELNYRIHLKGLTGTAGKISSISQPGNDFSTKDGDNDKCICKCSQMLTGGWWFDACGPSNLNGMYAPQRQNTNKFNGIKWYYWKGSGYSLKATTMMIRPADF
Procedure: To verify the epitope (or specific binding site) of the anti-Ang2 antibody prepared in Reference Example 2.3, an ELISA was performed using a recombinant protein where a receptor binding domain (RBD) of Ang2 protein in the form of being tagged with Flag was mutated by artificial means.
Each well of a 96-well MaxiSorp™ flat-bottom plate (Nunc) was coated with 50 ul (microliter) of 1000 nM antibody. Then, the plate was washed five times with 0.05% (v/v) Tween-20-containing PBS (PBST) and blocked with 1% (v/v) BSA-containing PBS at a room temperature for 2 hours. 250 ng of each mutant Ang2 protein obtained by substituting S417, Q418, P419, N421, 1434, D448, A449, P452, Y460, N467, K468, or F469 residue of Ang2 protein tagged with a FLAG sequence ([…], Sigma) at its N-terminal with alanine was added to each well of the plate, which was then allowed to react at a room temperature for 2 hours.
Finally, 50 ul of TMB substrates (Cell signaling) was added to each well of the plate to induce color development at a room temperature for 3 min. and the reaction was ceased by the addition of 50 ul of Stop solution (Cell signaling) and then, OD450 values were measured on a plate reader (Molecular Devices). By comparing binding affinities with mutated Ang2 to those of unmutated Ang2, each epitope of Ang2 antibodies was identified. The obtained measurement results of the binding affinities (%) with mutant Ang2 against the binding affinity with the native Ang2 are shown in the following Table 13.

[4] = target: T4, BSA (Bos taurus, UniProt P02769); test: Complex ELISA: plate coated with BSA, 10D6 2 ug/ml with or without FLAG-Ang2 0.25 ug/ml, anti-mouse IgG-HRP, OD450
T4 construct: commercial preparation; also called Bovine serum albumin; Sigma
T4 sequence (P02769 25-607 limits assumed): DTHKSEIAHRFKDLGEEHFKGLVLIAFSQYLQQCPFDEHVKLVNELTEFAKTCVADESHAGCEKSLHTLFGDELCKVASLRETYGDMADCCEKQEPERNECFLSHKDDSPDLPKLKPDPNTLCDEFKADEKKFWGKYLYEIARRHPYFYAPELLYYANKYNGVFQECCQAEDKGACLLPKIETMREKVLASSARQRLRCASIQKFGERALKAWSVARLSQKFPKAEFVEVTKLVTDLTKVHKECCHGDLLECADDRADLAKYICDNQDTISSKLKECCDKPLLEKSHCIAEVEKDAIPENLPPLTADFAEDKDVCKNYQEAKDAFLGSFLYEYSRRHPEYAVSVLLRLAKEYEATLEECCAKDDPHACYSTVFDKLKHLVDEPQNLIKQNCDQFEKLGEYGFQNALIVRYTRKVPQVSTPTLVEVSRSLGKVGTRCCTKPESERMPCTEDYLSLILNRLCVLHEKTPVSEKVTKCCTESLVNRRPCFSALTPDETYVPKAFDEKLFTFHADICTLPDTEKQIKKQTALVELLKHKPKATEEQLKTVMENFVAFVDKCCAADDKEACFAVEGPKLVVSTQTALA
Procedure: A 96-well MaxiSorp™ flat-bottom plate (Nunc) was coated with 4 μg/ml of Tie2-Fc (R&D systems) or BSA (Sigma). Then, the plate was washed five times with 0.05% (v/v) Tween-20-containing PBS (Phosphate Buffer Saline) and blocked with 1% (v/v) BSA (Bovine serum albumin; Sigma)-containing PBS at a room temperature for 2 hours. 0.25 μg/ml of Ang2 and 2 μg/ml of 10D6 antibody were added to each well of the plate, which was allowed to react at a room temperature for 2 hours and then washed five times with PBST. After that, an anti-mouse IgG antibody (Sigma) conjugated with HRP diluted in 1% (v/v) BSA-containing PBS at a ratio of 1:5,000 (v/v) was added in an amount of 100 ul to each well to react at a room temperature for 1 hour and then, the plate was washed five times with PBST. Lastly, 100 ul (microliter) of TMB substrate (Cell Signaling) was added to each well of the plate to induce color development for 3 min. and then, the reaction was ceased by the addition of 100 ul of Stop solution (Cell Signaling) and OD450 values were measured on a plate reader (Molecular Devices).

T1 sequence (Q02763 23-745 limits assumed): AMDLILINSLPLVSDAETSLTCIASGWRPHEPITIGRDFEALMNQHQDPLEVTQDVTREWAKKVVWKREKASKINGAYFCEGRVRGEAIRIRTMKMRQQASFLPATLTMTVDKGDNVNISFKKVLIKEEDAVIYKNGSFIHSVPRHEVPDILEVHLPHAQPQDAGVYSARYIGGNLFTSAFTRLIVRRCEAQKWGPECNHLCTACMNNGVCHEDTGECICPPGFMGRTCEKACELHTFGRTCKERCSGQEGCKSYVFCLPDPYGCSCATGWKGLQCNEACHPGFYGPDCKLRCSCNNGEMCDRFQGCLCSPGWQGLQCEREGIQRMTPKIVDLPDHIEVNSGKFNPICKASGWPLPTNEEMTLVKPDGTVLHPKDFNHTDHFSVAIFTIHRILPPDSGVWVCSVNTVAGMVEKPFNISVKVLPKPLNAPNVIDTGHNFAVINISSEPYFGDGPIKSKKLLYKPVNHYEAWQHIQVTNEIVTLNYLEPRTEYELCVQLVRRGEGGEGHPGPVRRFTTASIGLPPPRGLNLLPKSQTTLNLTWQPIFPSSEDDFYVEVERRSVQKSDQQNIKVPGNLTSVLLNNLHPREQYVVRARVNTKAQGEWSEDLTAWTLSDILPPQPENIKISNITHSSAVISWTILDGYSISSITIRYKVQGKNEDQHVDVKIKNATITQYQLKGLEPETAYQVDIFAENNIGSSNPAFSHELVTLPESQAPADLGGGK

binding result [1]: no binding (tested: 2 ug/ml) | Tie2 phosphorylation effect against control antibody RG [2]: ~8.6 fold | Tie2 phosphorylation level (pTyr/Tie2 ratio, HUVEC, 60 nM antibody) [2]: 180% | binding affinity (%) with mutant Ang2 against the binding affinity with the native Ang2 [3]: 103% | binding result [4]: no binding (tested: 2 ug/ml)
B1: SAIT-ANG2-AB-m10D6 (antibody, V domains shown)
VH: DVQLQESGPDLVKPSQSLSLTCTVTGYSITSDYAWNWIRQFPGNKLEWMGYINYSGNTDYNPSLKSRSSITRDTSKNQFFLQLNSVTTGDTATYYCARGNFEGAMDYWGQGTSVTVSS
VL: SIVMTQTPKFLLVSAGDRVTITCKASQSVSNDVAWYQQKPGQSPKLLIYYASNRYPGVPDRFTGSGYGTDFTFTISTVQAEDLAVYFCQQDYSSPWTFGGGTKLEIK
notes: Mouse monoclonal antibody purified from a hybridoma (KCLRF-BP-00295); it is not applied here; also called mouse antibody 10D6; 10D6 antibody
